{"source": "paper PMC4790635", "about": "“A critical role of mevalonate for peptidoglycan synthesis in Staphylococcus aureus” (Scientific Reports, 2016)", "proteins": {"B1": {"name": "S. aureus MvaA protein (HMG-CoA reductase), His-tag fused recombinant wild-type (enzyme, Staphylococcus aureus (strain RN4220), UniProt Q9FD86 1-425, looked up)", "chain": "MQSLDKNFRHLSRQQKLQQLVDKQWLSEDQFDILLNHPLIDEEVANSLIENVIAQGALPVGLLPNIIVDDKAYVVPMMVEEPSVVAAASYGAKLVNQTGGFKTVSSERIMIGQIVFDGVDDTEKLSADIKALEKQIHKIADEAYPSIKARGGGYQRIAIDTFPEQQLLSLKVFVDTKDAMGANMLNTILEAITAFLKNESPQSDILMSILSNHATASVVKVQGEIDVKDLARGERTGEEVAKRMERASVLAQVDIHRAATHNKGVMNGIHAVVLATGNDTRGAEASAHAYASRDGQYRGIATWRYDQKRQRLIGTIEVPMTLAIVGGGTKVLPIAKASLELLNVDSAQELGHVVAAVGLAQNFAACRALVSEGIQQGHMSLQYKSLAIVVGAKGDEIAQVAEALKQEPRANTQVAERILQEIRQQ", "notes": "MvaA protein (HMG-CoA reductase) of Staphylococcus aureus RN4220; mvaA gene amplified by PCR from chromosomal DNA with primers FmvaA-His and RmvaA-His and ligated into pET28a in-frame with the N-terminal histidine tag; also called SaMvaA; WT MvaA; source: E. coli BL21(DE3)pLysS, purified (nickel-chelating resin, dialysis)"}}, "target": "the molecule itself", "assay": "SEC; gel filtration analysis of S. aureus MvaA protein; conditions not told in the text (Supplementary Fig. 9)", "data": [{"protein": "B1", "values": [{"measurement": "stoichiometry N", "result": 2}]}]}
